Results published in patent US20240287138A1 (Merck Sharp & Dohme, published 2024).
Values belong to the binder of their own block, whether it stands above or below them. Numbered stars: 1 amine (or outer) side, 2 acyl side, 3 side chain; on linkers, the order of the positions; unused ones are H or OH. Bridge positions count the residues as written; N and C are the ends. Square brackets hold non-standard residues; d marks the D form. Primed or numbered codes have the meaning given here. 4Pal2F = (S)-2-Amino-3-(3-fluoropyridin-4-yl)propanoic acid, O=C([C@H](Cc1ccncc1F)N[*:1])[*:2]; bhcLeu = (1R,3S)-3-aminocyclopentane-1-carboxylic acid, O=C([C@@H]1CC[C@H](N[*:1])C1)[*:2]; AhpF3 = (S)-2-Amino-7,7,7-trifluoroheptanoic acid, O=C([C@H](CCCCC(F)(F)F)N[*:1])[*:2]; Trp(1-CH2CO) = O=C([C@H](Cc1cn(CC(=O)[*:3])c2ccccc12)N[*:1])[*:2]; Ala(2-carboxypyrimidin-5-yl) = N[C@@H](Cc1cnc(C(=O)O)nc1)C(=O)O; Trp(βS-Me,7-OMe) = COc1cccc2c([C@H](C)[C@H](N)C(=O)O)c[nH]c12; Phe(3R-OH) = O=C([C@@H](N[*:1])[C@H](O[*:3])c1ccccc1)[*:2]; Ala(1-bicyclo(1.1.1)pentyl) = N[C@@H](CC12CC(C1)C2)C(=O)O; NEtdA = N-ethyl-D-alanine, CCN([C@H](C)C(=O)[*:2])[*:1]; Phe(4-SO3H) = N[C@@H](Cc1ccc(S(=O)(=O)O)cc1)C(=O)O; Trp(7-Cl) = N[C@@H](Cc1c[nH]c2c(Cl)cccc12)C(=O)O; Phe(4-CONH2) = NC(=O)c1ccc(C[C@H](N)C(=O)O)cc1; Phe(4-COOH) = N[C@@H](Cc1ccc(C(=O)O)cc1)C(=O)O; Trp(7-aza) = N[C@@H](Cc1c[nH]c2ncccc12)C(=O)O; Pip(5R-OH) = O=C(O)[C@@H]1CC[C@@H](O)CN1; Val(3-OH) = CC(C)(O)[C@H](N)C(=O)O; Pip(4-aza) = O=C(O)[C@@H]1CNCCN1; 4Pal = N[C@@H](Cc1ccncc1)C(=O)O; NMeE = CN[C@@H](CCC(=O)O)C(=O)O; dHyp = O=C(O)[C@H]1C[C@H](O)CN1; Morpip6diMe = not defined here; dbhcLeu = not defined here; αMeS = C[C@](N)(CO)C(=O)O; Nle = CCCC[C@H](N)C(=O)O; Pip′ = not defined here; Sar = CNCC(=O)O

Target: T1, TNFR1 on THP-1 Lucia NF-κB cells (UniProt P19438 30-455, limits assumed)
T1 sequence (looked up): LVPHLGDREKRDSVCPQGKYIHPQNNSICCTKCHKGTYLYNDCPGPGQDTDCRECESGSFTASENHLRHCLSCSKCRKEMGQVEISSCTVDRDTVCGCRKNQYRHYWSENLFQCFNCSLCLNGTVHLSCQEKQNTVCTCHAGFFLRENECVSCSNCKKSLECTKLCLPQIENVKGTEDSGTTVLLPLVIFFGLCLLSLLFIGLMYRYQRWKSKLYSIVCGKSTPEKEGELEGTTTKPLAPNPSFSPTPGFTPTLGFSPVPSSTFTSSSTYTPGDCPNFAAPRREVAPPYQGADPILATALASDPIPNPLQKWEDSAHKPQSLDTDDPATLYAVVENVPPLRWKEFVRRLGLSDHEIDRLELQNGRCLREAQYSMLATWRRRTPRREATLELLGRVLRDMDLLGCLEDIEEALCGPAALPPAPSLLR
Experiment: cell-based or functional assay

B1: SEQ ID NO. 217 (peptide)
peptide: {CH2CO}-[Nle]H[Val(3-OH)][Trp(7-aza)][NMeE]N[4Pal][Trp(7-Cl)][αMeS][Phe(4-COOH)]Y[Sar][Trp(βS-Me,7-OMe)]C-NH2
modifications: thioether N-14
SMILES: CCCC[C@@H]1NC(=O)CSC[C@@H](C(N)=O)NC(=O)[C@H]([C@@H](C)c2c[nH]c3c(OC)cccc23)NC(=O)CN(C)C(=O)[C@H](Cc2ccc(O)cc2)NC(=O)[C@H](Cc2ccc(C(=O)O)cc2)NC(=O)[C@](C)(CO)NC(=O)[C@H](Cc2c[nH]c3c(Cl)cccc23)NC(=O)[C@H](Cc2ccncc2)NC(=O)[C@H](CC(N)=O)NC(=O)[C@H](CCC(=O)O)N(C)C(=O)[C@H](Cc2c[nH]c3ncccc23)NC(=O)[C@H](C(C)(C)O)NC(=O)[C@H](Cc2c[nH]cn2)NC1=O
- THP-1 IC50: 4.4 nM

Binder: {CH2CO}-[Nle][4Pal][Pip′]W[NMeE]N[4Pal][Trp(7-Cl)][αMeS][Phe(4-COOH)]Y[Sar][SbMeW7Me]C-NH2 (thioether N-14) [SEQ ID NO. 208]
- THP-1 IC50: 4 nM

B7: SEQ ID NO. 197 (peptide)
peptide: cyclo([bhcLeu][Nle][4Pal][Pip(4-aza)][Trp(1-CH2CO)][NMeE]N[4Pal][Trp(7-Cl)][αMeS][Phe(4-COOH)]Y[Sar][Trp(βS-Me,7-OMe)])
SMILES: CCCC[C@@H]1NC(=O)[C@@H]2CC[C@@H](C2)NC(=O)[C@H]([C@@H](C)c2c[nH]c3c(OC)cccc23)NC(=O)CN(C)C(=O)[C@H](Cc2ccc(O)cc2)NC(=O)[C@H](Cc2ccc(C(=O)O)cc2)NC(=O)[C@](C)(CO)NC(=O)[C@H](Cc2c[nH]c3c(Cl)cccc23)NC(=O)[C@H](Cc2ccncc2)NC(=O)[C@H](CC(N)=O)NC(=O)[C@H](CCC(=O)O)N(C)C(=O)[C@H](Cc2cn(CC(=O)O)c3ccccc23)NC(=O)[C@@H]2CNCCN2C(=O)[C@H](Cc2ccncc2)NC1=O
- THP-1 IC50: 0.7 nM

B9: SEQ ID NO. 213 (peptide)
peptide: cyclo([bhcLeu][AhpF3][4Pal][Pip(4-aza)]W[NMeE]N[4Pal][Trp(7-Cl)][αMeS][Phe(4-COOH)]Y[Sar][Trp(βS-Me,7-OMe)])
SMILES: COc1cccc2c([C@H](C)[C@@H]3NC(=O)CN(C)C(=O)[C@H](Cc4ccc(O)cc4)NC(=O)[C@H](Cc4ccc(C(=O)O)cc4)NC(=O)[C@](C)(CO)NC(=O)[C@H](Cc4c[nH]c5c(Cl)cccc45)NC(=O)[C@H](Cc4ccncc4)NC(=O)[C@H](CC(N)=O)NC(=O)[C@H](CCC(=O)O)N(C)C(=O)[C@H](Cc4c[nH]c5ccccc45)NC(=O)[C@@H]4CNCCN4C(=O)[C@H](Cc4ccncc4)NC(=O)[C@H](CCCCC(F)(F)F)NC(=O)[C@@H]4CC[C@@H](C4)NC3=O)c[nH]c12
- THP-1 IC50: 1 nM

B10: SEQ ID NO. 199 (peptide)
peptide: cyclo([bhcLeu][Nle][4Pal][Pip(4-aza)]W[NMeE]N[4Pal][Trp(7-Cl)][αMeS][Phe(4-SO3H)]Y[Sar][Trp(βS-Me,7-OMe)])
SMILES: CCCC[C@@H]1NC(=O)[C@@H]2CC[C@@H](C2)NC(=O)[C@H]([C@@H](C)c2c[nH]c3c(OC)cccc23)NC(=O)CN(C)C(=O)[C@H](Cc2ccc(O)cc2)NC(=O)[C@H](Cc2ccc(S(=O)(=O)O)cc2)NC(=O)[C@](C)(CO)NC(=O)[C@H](Cc2c[nH]c3c(Cl)cccc23)NC(=O)[C@H](Cc2ccncc2)NC(=O)[C@H](CC(N)=O)NC(=O)[C@H](CCC(=O)O)N(C)C(=O)[C@H](Cc2c[nH]c3ccccc23)NC(=O)[C@@H]2CNCCN2C(=O)[C@H](Cc2ccncc2)NC1=O
- THP-1 IC50: 1 nM

B11: SEQ ID NO. 198 (peptide)
peptide: cyclo([bhcLeu][Nle][4Pal][Pip(4-aza)]W[NMeE]N[4Pal2F][Trp(7-Cl)][αMeS][Phe(4-COOH)]Y[Sar][Trp(βS-Me,7-OMe)])
SMILES: CCCC[C@@H]1NC(=O)[C@@H]2CC[C@@H](C2)NC(=O)[C@H]([C@@H](C)c2c[nH]c3c(OC)cccc23)NC(=O)CN(C)C(=O)[C@H](Cc2ccc(O)cc2)NC(=O)[C@H](Cc2ccc(C(=O)O)cc2)NC(=O)[C@](C)(CO)NC(=O)[C@H](Cc2c[nH]c3c(Cl)cccc23)NC(=O)[C@H](Cc2ccncc2F)NC(=O)[C@H](CC(N)=O)NC(=O)[C@H](CCC(=O)O)N(C)C(=O)[C@H](Cc2c[nH]c3ccccc23)NC(=O)[C@@H]2CNCCN2C(=O)[C@H](Cc2ccncc2)NC1=O
- THP-1 IC50: 0.8 nM

More lines, now with the values ahead:

- THP-1 IC50: 1.9 nM
B2: SEQ ID NO. 186 (peptide)
peptide: {CH2CO}-[Nle][4Pal][Pip(5R-OH)]W[NEtdA]N[4Pal][Trp(7-Cl)][αMeS][Phe(4-CONH2)]Y[Sar][Trp(βS-Me,7-OMe)]C-NH2
modifications: thioether N-14
SMILES: CCCC[C@@H]1NC(=O)CSC[C@@H](C(N)=O)NC(=O)[C@H]([C@@H](C)c2c[nH]c3c(OC)cccc23)NC(=O)CN(C)C(=O)[C@H](Cc2ccc(O)cc2)NC(=O)[C@H](Cc2ccc(C(N)=O)cc2)NC(=O)[C@](C)(CO)NC(=O)[C@H](Cc2c[nH]c3c(Cl)cccc23)NC(=O)[C@H](Cc2ccncc2)NC(=O)[C@H](CC(N)=O)NC(=O)[C@@H](C)N(CC)C(=O)[C@H](Cc2c[nH]c3ccccc23)NC(=O)[C@@H]2CC[C@@H](O)CN2C(=O)[C@H](Cc2ccncc2)NC1=O

- THP-1 IC50: 3.3 nM
B3: SEQ ID NO. 211 (peptide)
peptide: {CH2CO}-[Nle][4Pal][Phe(3R-OH)][Trp(7-aza)][NMeE]N[4Pal][Trp(7-Cl)][αMeS][Phe(4-COOH)]Y[Sar][Trp(βS-Me,7-OMe)]C-NH2
modifications: thioether N-14
SMILES: CCCC[C@@H]1NC(=O)CSC[C@@H](C(N)=O)NC(=O)[C@H]([C@@H](C)c2c[nH]c3c(OC)cccc23)NC(=O)CN(C)C(=O)[C@H](Cc2ccc(O)cc2)NC(=O)[C@H](Cc2ccc(C(=O)O)cc2)NC(=O)[C@](C)(CO)NC(=O)[C@H](Cc2c[nH]c3c(Cl)cccc23)NC(=O)[C@H](Cc2ccncc2)NC(=O)[C@H](CC(N)=O)NC(=O)[C@H](CCC(=O)O)N(C)C(=O)[C@H](Cc2c[nH]c3ncccc23)NC(=O)[C@H]([C@H](O)c2ccccc2)NC(=O)[C@H](Cc2ccncc2)NC1=O

- THP-1 IC50: 1.6 nM
B4: SEQ ID NO. 191 (peptide)
peptide: cyclo([bhcLeu][Nle][4Pal][Pip(5R-OH)]W[dHyp]N[Phe(4-COOH)][Trp(7-Cl)][αMeS][Phe(4-CONH2)][Ala(2-carboxypyrimidin-5-yl)][Sar][Trp(βS-Me,7-OMe)])
SMILES: CCCC[C@@H]1NC(=O)[C@@H]2CC[C@@H](C2)NC(=O)[C@H]([C@@H](C)c2c[nH]c3c(OC)cccc23)NC(=O)CN(C)C(=O)[C@H](Cc2cnc(C(=O)O)nc2)NC(=O)[C@H](Cc2ccc(C(N)=O)cc2)NC(=O)[C@](C)(CO)NC(=O)[C@H](Cc2c[nH]c3c(Cl)cccc23)NC(=O)[C@H](Cc2ccc(C(=O)O)cc2)NC(=O)[C@H](CC(N)=O)NC(=O)[C@H]2C[C@H](O)CN2C(=O)[C@H](Cc2c[nH]c3ccccc23)NC(=O)[C@@H]2CC[C@@H](O)CN2C(=O)[C@H](Cc2ccncc2)NC1=O

- THP-1 IC50: 3.7 nM
B5: SEQ ID NO. 214 (peptide)
peptide: cyclo([dbhcLeu][Nle][4Pal][Morpip6diMe]W[NMeE]N[4Pal][Trp(7-Cl)][αMeS][Phe(4-CONH2)]Y[Sar][Trp(βS-Me,7-OMe)])
modifications: reading uncertain; also: printed as cyclo(dbhcLeu-Nle-4Pal-Morpip6diMe-W-NMeE-N-4Pal-Trp7Cl-aMeS-Phe4CONH2-Y-Sar-SbMeW7OMe)

- THP-1 IC50: 0.9 nM
B6: SEQ ID NO. 201 (peptide)
peptide: cyclo([bhcLeu][Nle][4Pal2F][Pip(4-aza)]W[NMeE]N[4Pal][Trp(7-Cl)][αMeS][Phe(4-COOH)]Y[Sar][Trp(βS-Me,7-OMe)])
SMILES: CCCC[C@@H]1NC(=O)[C@@H]2CC[C@@H](C2)NC(=O)[C@H]([C@@H](C)c2c[nH]c3c(OC)cccc23)NC(=O)CN(C)C(=O)[C@H](Cc2ccc(O)cc2)NC(=O)[C@H](Cc2ccc(C(=O)O)cc2)NC(=O)[C@](C)(CO)NC(=O)[C@H](Cc2c[nH]c3c(Cl)cccc23)NC(=O)[C@H](Cc2ccncc2)NC(=O)[C@H](CC(N)=O)NC(=O)[C@H](CCC(=O)O)N(C)C(=O)[C@H](Cc2c[nH]c3ccccc23)NC(=O)[C@@H]2CNCCN2C(=O)[C@H](Cc2ccncc2F)NC1=O

- THP-1 IC50: 1.6 nM
B8: SEQ ID NO. 190 (peptide)
peptide: cyclo([bhcLeu][Ala(1-bicyclo(1.1.1)pentyl)][4Pal][Pip(4-aza)]W[NMeE]N[4Pal][Trp(7-Cl)][αMeS][Phe(4-COOH)]Y[Sar][Trp(βS-Me,7-OMe)])
SMILES: COc1cccc2c([C@H](C)[C@@H]3NC(=O)CN(C)C(=O)[C@H](Cc4ccc(O)cc4)NC(=O)[C@H](Cc4ccc(C(=O)O)cc4)NC(=O)[C@](C)(CO)NC(=O)[C@H](Cc4c[nH]c5c(Cl)cccc45)NC(=O)[C@H](Cc4ccncc4)NC(=O)[C@H](CC(N)=O)NC(=O)[C@H](CCC(=O)O)N(C)C(=O)[C@H](Cc4c[nH]c5ccccc45)NC(=O)[C@@H]4CNCCN4C(=O)[C@H](Cc4ccncc4)NC(=O)[C@H](CC45CC(C4)C5)NC(=O)[C@@H]4CC[C@@H](C4)NC3=O)c[nH]c12
